Assay results from the supplement of paper PMC10126150.
± gives the standard deviation of the averaged measurements.

Tested on: ATP
Test: switch fluorescence ratio, 500 uM ATP over buffer (Cy3 cluster intensity, sum of 5 cycles each) (fold (ratio)); higher = stronger signal-on switching upon ATP binding; sequences stand for … in TCGTCGGCAGCGTCAGATGTGTATAAGAGACAGTTTTTTTTTTTTTTTTTTTTTTTTT…TC
Settings: aptamer strand: ATP DNA aptamer (quencher-CACCTGGGGGAGTATTGCGGAGGAAGG + anchor), 100 nM annealed; ATP concentration: 500 uM
Summary of the method: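 Between each of five buffer/ATP cycles, the flow-cell was stripped with NaOH and re-annealed. Each cycle imaged Cy3-labelled switching-strand clusters, annealed to 100 nM quencher-labelled ATP aptamer on a modified Illumina MiSeq flow-cell, first in selection buffer and then after 15 min with 500 uM ATP at 22 °C. The fluorescence ratio is summed target-cycle over summed buffer-cycle Cy3 intensity per cluster, averaged per switch-domain sequence, with clusters outside 100-1000 RFU excluded.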
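Also: ATP exposure 15 min at 22 °C before imaging.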

In order of falling switch fluorescence ratio:
1. CTTAATAGAC  2.44 ± 1.9
2. CGCACAGCAC  1.59 ± 0.023
3. CCGGGGGGAT  1.55 ± 0.66
4. TGCATTACGT  1.35 ± 0.015
5. TTTCCGGGGT  1.28 ± 0.31
6. AAGAGACAGA  1.25 ± 0.066
7. ATGCACACTC  1.225 ± 0.0043
8. ATAGGTTACG  1.21 ± 0.25
9. CAGGTAATAG  1.17 ± 0.028
10. TAAATACTCA  1.16 ± 0.083
11. ATATCCCCCA  1.15 ± 0.11
12. TTTTTACGCA  1.154 ± 0.0098
13. CACCTCGGAC  1.139 ± 0.0092
14. TTGACGAGCG  1.13 ± 0.051
15. CGTTGGAATC  1.12 ± 0.014
16. TCGGAAATGT  1.12 ± 0.14
17. AACGTTGGAC  1.1 ± 0.029
18. AATCGGAGCT  1.09 ± 0.026
19. CGAGAATGTT  1.07 ± 0.1
20. CCGGGGGACG  1.06 ± 0.14
21. AAGGAAAGGT  1.061 ± 0.0073
22. TGCTACCGGG  1.058 ± 0.0016
23. GTGGATGTAC  1.06 ± 0.05
24. GATAGGACGC  1.05 ± 0.02
25. CTTATTCGCC  1.05 ± 0.099
26. TCGGGTGGTA  1.05 ± 0.097
27. TAGATGCAGT  1.04 ± 0.042
28. TTTTGCATTT  1.04 ± 0.055
29. AAACCCTGGG  1.04 ± 0.029
30. CGGATTAAAC  1.04 ± 0.022
31. GGTCTAATCT  1.04 ± 0.015
32. ATATGACGCT  1.04 ± 0.09
33. TACCATATTT  1.04 ± 0.021
34. ATTTTTCTCA  1.04 ± 0.062
35. GTTGGCATTA  1.03 ± 0.023
36. ACCGTGCCTG  1.03 ± 0.072
37. AGGCGTGGGG  1.03 ± 0.017
38. ATCACTGGTA  1.03 ± 0.017
39. CAGGTCTGTG  1.025 ± 0.0022
40. GGGTCGGGTG  1.03 ± 0.042
41. AGGGTTTCCG  1.03 ± 0.038
42. ATTGGGGGT  1.026 ± 0.0062
43. GCATGTCGGG  1.03 ± 0.015
44. AGGGGAATTA  1.026 ± 0.0047
45. CAATGATCTT  1.02 ± 0.014
46. TGCAGACAGA  1.02 ± 0.055
47. ACAAGTGAGG  1.02 ± 0.023
48. CTAACGTGAG  1.02 ± 0.034
49. TCTTTTTTTC  1.02 ± 0.034
50. AAGTTGCTGT  1.02 ± 0.063
51. TTATTAAGAA  1.02 ± 0.063
52. TAGCGTGTTG  1.02 ± 0.031
53. CTCGTACGAG  1.02 ± 0.021
54. AGCCGTTTGA  1.023 ± 0.0016
55. CTCATGAAAA  1.02 ± 0.02
56. ATATTTTATT  1.02 ± 0.031
57. GGGTACGAG  1.018 ± 0.01
58. GGGAAGCTTA  1.008 ± 0.0042
59. GTAAGGGGTG  1.01 ± 0.014
60. ATGCTAAGCT  1.013 ± 0.0096
61. CAGGGAGCTG  1.01 ± 0.027
62. CTGGGGTGGG  1.01 ± 0.042
63. ATTAGTTGGG  1.0052 ± 0.00057
64. TGTGTGGGGG  1.01 ± 0.031
65. CGGGGAATGG  1.01 ± 0.03
66. AACAGAAGAG  1.007 ± 0.01
67. GGAATAGTGC  1.01 ± 0.052
68. CCGGGGATCA  1.01 ± 0.024
69. AGGCACGGGC  1.0064 ± 0.001
70. TTATGTGTTG  1.01 ± 0.011
71. CTGTGTGGGA  1.01 ± 0.013
72. AGTTCGATGT  1.01 ± 0.025
73. AGGACTGGTG  1.01 ± 0.044
74. GATAGTTAGG  1.01 ± 0.021
75. CTGGAATGTT  1.012 ± 0.01
76. ATATTTCATG  1.006 ± 0.0091
77. TATTACCGTT  1.006 ± 0.0076
78. CTAGTTTGGT  1.008 ± 0.0049
79. CGGGGCTTGG  1.01 ± 0.023
80. TTACATAAGG  1.006 ± 0.0048
81. TGTATGTGGT  1 ± 0.048
82. ACATCAGATC  1 ± 0.011
83. TATGTGACGA  1 ± 0.026
84. GACTGAGAGT  1 ± 0.054
85. CTAAAAACGG  1.002 ± 0.01
86. GGAACAGCGG  1.001 ± 0.0016
87. TGGGGTTCGG  1 ± 0.079
88. GTGTTATCGG  1 ± 0.045
89. AAAAAAAAAA  1 ± 0.022
90. TGATTGAGCC  0.998 ± 0.047
91. CGCTGCTGGT  0.998 ± 0.031
92. TTGCTCTAAC  0.998 ± 0.022
93. TAAAATAGTG  0.997 ± 0.047
94. GATCTGGATA  0.9964 ± 0.0013
95. AGGTAAAGGG  0.996 ± 0.04
96. GGCTTTGTAG  0.9956 ± 0.0081
97. TATCTTGGGC  0.996 ± 0.083
98. TTAGAAGGTA  0.995 ± 0.035
99. AACCCGGGAA  0.995 ± 0.042
100. TCAGGTTAAG  0.9954 ± 0.0061
101. ATCATTTTAG  0.995 ± 0.01
102. TGGGGGAAAG  0.993 ± 0.026
103. TAAGGGGCTT  0.992 ± 0.021
104. CTGAGTGCTT  0.991 ± 0.0067
105. AAGTGTGGTA  0.991 ± 0.018
106. CTCAGTCGGG  0.991 ± 0.01
107. TTTTGAGGGT  0.99 ± 0.023
108. TTGGTTTTGC  0.99 ± 0.019
109. ATTTATCTGA  0.99 ± 0.016
110. CGGGGGGGCC  0.99 ± 0.042
111. TCACGATTTA  0.99 ± 0.057
112. TTATATTCTG  0.9893 ± 0.0041
113. TTTAAAATTG  0.989 ± 0.042
114. GCATTTTCAG  0.989 ± 0.021
115. GAGGATAAGT  0.988 ± 0.078
116. GGGTTTTTTA  0.988 ± 0.022
117. TTCAGGGTAC  0.987 ± 0.039
118. GGGTCTTGAC  0.9858 ± 0.0045
119. TACAGGCTGA  0.9858 ± 0.0046
120. CGTTGAGTTG  0.986 ± 0.032
121. GGATGAGGGT  0.986 ± 0.018
122. AATATGGCCG  0.985 ± 0.037
123. TATTGGCGCT  0.984 ± 0.018
124. CGTGTAGTGG  0.984 ± 0.018
125. GTTTTTGGGT  0.984 ± 0.033
126. TGTTTACGGT  0.983 ± 0.032
127. GTTTGATAAA  0.981 ± 0.034
128. CATAACGGTT  0.98 ± 0.025
129. ATTCAATCGG  0.98 ± 0.024
130. ATTAAGTGTA  0.98 ± 0.019
131. TATAGGGTCA  0.979 ± 0.031
132. AGGGGTTCCG  0.979 ± 0.042
133. AGGGTAATTA  0.979 ± 0.029
134. TAGAATAGGT  0.978 ± 0.011
135. GTTGTGGTCA  0.9771 ± 0.0067
136. GCGGGAGGCT  0.977 ± 0.028
137. CGATTTTGAG  0.9768 ± 0.0076
138. GCTATGTTTG  0.9757 ± 0.0064
139. GACAGAATGT  0.976 ± 0.023
140. TTGATAGATG  0.975 ± 0.028
141. AGTTGTATGG  0.9738 ± 0.0049
142. AGAAAAAATG  0.974 ± 0.05
143. TCATGCTTGA  0.974 ± 0.032
144. CGTTAAGTTA  0.974 ± 0.012
145. CGAATGCGTT  0.973 ± 0.021
146. TAGGGAGGGG  0.973 ± 0.028
147. TATTTGAGTC  0.972 ± 0.021
148. GGGATTATTC  0.9725 ± 0.0041
149. TAATAAAGAT  0.969 ± 0.054
150. TGGGGCTTGA  0.9684 ± 0.005
151. TTAGAGGCAG  0.967 ± 0.025
152. GGTGATTGCT  0.967 ± 0.036
153. AGTTTTACAT  0.9608 ± 0.0018
154. ATAAATGCCG  0.961 ± 0.12
155. TAAGGATGGG  0.961 ± 0.032
156. AAGGCTAATG  0.953 ± 0.011
157. AGTTAGGAGG  0.947 ± 0.053
